Laboratory results published in patent publication US20200324099A1, “ACOUSTIC WAVE MEDIATED NON-INVASIVE DRUG DELIVERY” (Mupharma Pty Ltd, priority 2016, published 2020).
Structures can show the parent of a compound that is named as a salt. Where two headings read alike, the source gives them in different places. Values belong to the molecule of their own block, whether it stands above or below them.

Experiments:
[1] = for SAW samples pixel intensity: SAW approximately 4V; for SAW samples pixel intensity / Control samples pixel intensity: 5 s exposure, 30 μg/ml; for Control samples pixel intensity: no acoustic waves (0 mV)
Experimental: The SAW device 10 illustrated in FIG. 1 was used to controllably deliver albumin-fluorescein isothiocyanate (FITC-albumin) across epithelial membranes of pig lips. Fresh lips tissues from pigs were obtained from a slaughterhouse. The experiments were conducted within 2 hours after the animals were sacrificed. The porcine lips were exposed to FITC-albumin molecules with and without the acoustic waves. The exposure time was 5 s for both control and SAW experiments. The power or voltage was maintained at 0 mV (no voltage) for control, and approximately 4V for SAW experiments. The concentration and the amount of FITC-Albumin (30 μg/ml) used was maintained constant throughout the penetration depth study.
The fresh tissues were further snap frozen in isopentane chilled by liquid nitrogen with the aid of optimal cutting temperature compound (OCT) as the embedding medium. Samples were further wrapped in aluminium foil and stored at −80° C. until sectioned by a dermatome. The tissues were sectioned by a dermatome in a cryostat to create samples of contiguous layers of tissue of 50 μm thickness.
Fluorescent images of the samples were obtained and quantified using Image J software to calculate the normalised pixel intensity of the green channel.

[2] = SAW (30 MHz) perfusion of FITC-Albumin and Fluorescein in pig lip tissue (Example Three); format: in vitro ADME; details: for perfusion into pig lip tissue with SAW: SAW 30 MHz, different exposure times and powers; for passive diffusion into pig lip tissue (control sample): no SAW
From the text: In this set of experiments, the effect of surface acoustic wave (SAW) at 30 MHz on FITC-Albumin and Fluorescein perfusion for different SAW powers and operating time was investigated.
Fluorescein sodium salt and FITC-Albumin were purchased from Sigma-Aldrich, Australia. Fresh porcine lips were obtained from diamond valley pork abattoir (Laverton, Melbourne) prior to the experiments. Surface acoustic wave (SAW) chip patterning of Chromium and Aluminum interdigital transducers (IDT) were fabricated using standard lithographic techniques at Micro Nano Research Facility (MNRF), RMIT University.
The lips were wrapped in sterile gauze saturated in Krebs buffer during transportation to maintain the viability of the tissues. […] The porcine lips were exposed to various molecules with and without the surface acoustic waves (SAW). The lips were washed immediately after the experiments to get rid of any reminent targeting molecules.
Samples were wrapped in aluminium foil and stored at −80 degree until dermatomed. The tissues were dermatomed in a cryostat at a thickness of 50-micron layer until 1 mm for extensive penetration studies.
Tissue sectioning was performed at RMIT Bundoora and Melbourne University campuses. Fluorescent images of the samples were obtained using optical microscope (×10 lens), consistent light exposure of 600 ms. Acquired images were then quantified using ImageJ software to calculate the normalized pixel intensity of the green channel.
The model drug (FITC-albumin and fluorescein) used was placed directly on the device throughout the experiments. Fresh lips were approximately dissected into a 1 cm*1 cm cube and was placed on the drug. No coupling agent or loading substrate was used to transmit the vibrations from device into tissues. The inter-digital electrodes (IDTs) patterned on the lithium niobate (piezoelectric substrate) generated surface waves (SAW), which in turn drives the model drugs into the tissues. (FIG. 12)

[3] = rat, in vivo
Experimental: All experiments were conducted in accordance with the ARVO Statement for Use of Animals in Ophthalmic and Vision Research and with approval from the ANU Animal Experimentation Ethics Committee (Ethics ID: A2014/56). Adult Wistar rats were utilised in all experiments, which were born and reared under normal lighting conditions (˜5 lux light) and aged between 90 and 120 post-natal days at the time of use. Wistar rats were anaesthetised with an intraperitoneal injection of ketamine (100 mg/kg; Troy Laboratories, NSW, Australia) and Xylazil (12 mg/kg; Troy Laboratories). Once anaesthetised, Systane eye drops (Alcon, TX, USA) were applied every 2 minutes to maintain corneal lubrication. Animals were placed on a heat blanket to maintain body temperature at 37° C. and a cotton eye loop was applied around the eye to expose the anterior surface.
The inventors' HFB device (with A.A Lab Systems A-301 HS HV amplifier and RIGOL DG4062 Function/Arbitrary Waveform Generator) was loaded with 0.2% Riboflavin-5-phosphate-sodium (Riboflavin-5-phosphate-sodium-5-phosphate sodium #30-1598-25GM; PCCA, TX, USA), made up in sterile saline (0.9% NaCl), and applied to the centre of the cornea for 5 minutes. The settings on the device were as follows: transducer—1.6 MHz; amplifier—DC offset=off position; waveform generator—60 KHz sine waveform. The device was run for 5 minutes at 0, 3, 11 or 13 voltage peak to peak (VPP). […] Therefore, an electric circuit between the device and the eye tissue was not created.
Following delivery, the residual Riboflavin-5-phosphate-sodium was washed from the eye with normal saline. The animal was euthanized, the eyes removed and the eyes fixed in 4% paraformaldehyde for 5 minutes before being cryopreserved and immediately sectioned at 16 μm thickness.
Sections were visualised under a Nikon A1 confocal microscope using the green 488 channel and imaged using the 10× objective. Data analysis for quantification was performed with an n=3 with 8 regions per section, with the gain of the laser set to optimal fluorescence for the brightest section (gain setting 110) and maintained for all imaging.

Molecule: albumin-fluorescein isothiocyanate [FITC-albumin]
depth of delivery across the epithelial layers of the pig lips ([1]; SAW device, 5 s, tissue deeper than 500 μm not examined): 500 μm
diffusion through the layers of the pig lips ([1]; control, no acoustic waves, 5 s): diffused evenly and uniformly through the layers of the pig lips
SAW samples pixel intensity ([1]; layer 100 μm): 37.192
Control samples pixel intensity ([1]; layer 100 μm): 7.52
SAW samples pixel intensity ([1]; layer 150 μm): 19.733
Control samples pixel intensity ([1]; layer 150 μm): 7.421
SAW samples pixel intensity ([1]; layer 200 μm): 19.835
Control samples pixel intensity ([1]; layer 200 μm): 6.617
SAW samples pixel intensity ([1]; layer 250 μm): 14.041
Control samples pixel intensity ([1]; layer 250 μm): 6.126
SAW samples pixel intensity ([1]; layer 300 μm): 11.229
Control samples pixel intensity ([1]; layer 300 μm): 7.488
SAW samples pixel intensity ([1]; layer 350 μm): 16.047
Control samples pixel intensity ([1]; layer 350 μm): 7.405
SAW samples pixel intensity ([1]; layer 400 μm): 12.274
Control samples pixel intensity ([1]; layer 400 μm): 7.589
SAW samples pixel intensity ([1]; layer 450 μm): 9.935
Control samples pixel intensity ([1]; layer 450 μm): 6.886
SAW samples pixel intensity ([1]; layer 500 μm): 9.958
Control samples pixel intensity ([1]; layer 500 μm): 7.715
perfusion into pig lip tissue with SAW [2]: outstanding perfusion compared to passive diffusion
passive diffusion into pig lip tissue (control sample) [2]: hardly any diffusion

concentrations in posterior iris, ciliary body and choroid [3]: significant concentrations
delivery to the posterior segment of the eye [3]: concentrated in the uveal tract
fluorescence in anterior chamber and vitreous [3]: did not show any fluorescence
increase in average relative fluorescence intensity (RFI), treated versus control cornea [3]: ~4 times
Molecule: Cc1cc2nc3c(=O)[nH]c(=O)nc-3n(C[C@H](O)[C@H](O)[C@H](O)COP(=O)([O-])O)c2cc1C.[Na+] [Riboflavin-5-phosphate-sodium]

passive diffusion into pig lip tissue (control sample) [2]: prevalent
Molecule: O=C1OC2(c3ccc(O)cc3Oc3cc(O)ccc32)c2ccccc21 [Fluorescein, Fluorescein sodium salt]
perfusion into pig lip tissue with SAW [2]: showed an improvement, especially for longer exposure time
